Experimental data taken from paper PMC9482650, “Quantitative fragmentomics allow affinity mapping of interactomes” (Nature Communications, 2022).
Blank lines part the entries; values can stand above or below the binder they belong to.

Legend:
Test in all cases: holdup assay
Parameters in all cases: key: below the threshold = too weak to quantify, mostly under pKd 3.1 to 4
[1] = target: AHNAK1, Q09666
[2] = target: T1, APBA3_1, O96018
T1 sequence (O96018 389-490, limits assumed, looked up): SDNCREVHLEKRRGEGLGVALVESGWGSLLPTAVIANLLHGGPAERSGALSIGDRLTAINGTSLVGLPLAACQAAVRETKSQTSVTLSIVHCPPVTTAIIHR

[3] = target: T2, CARD11, Q9BXL7
T2 sequence (Q9BXL7 662-765, limits assumed, looked up): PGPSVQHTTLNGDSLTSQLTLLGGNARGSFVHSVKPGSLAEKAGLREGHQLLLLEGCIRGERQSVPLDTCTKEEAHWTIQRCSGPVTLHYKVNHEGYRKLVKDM

[4] = target: DLG1_3, Q12959
[5] = target: DLG2_2, Q15700
[6] = target: DLG4_3, P78352
[7] = target: FRMPD2_2, Q68DX3
[8] = target: GORASP1, Q9BQQ3
[9] = target: GORASP2, Q9H8Y8
[10] = target: GRID2IP_1, A4D2P6
[11] = target: GRID2IP_2, A4D2P6
[12] = target: T3, GRIP1_7, Q9Y3R0
T3 sequence (Q9Y3R0 999-1096, limits assumed, looked up): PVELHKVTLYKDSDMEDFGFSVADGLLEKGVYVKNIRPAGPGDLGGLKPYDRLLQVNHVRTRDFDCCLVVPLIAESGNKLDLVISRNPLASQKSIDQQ

[13] = target: GRIP2_5, Q9C0E4
[14] = target: GRIP2_7, Q9C0E4
[15] = target: HTRA2, O43464
[16] = target: T4, HTRA3, P83110
T4 sequence (P83110 354-453, limits assumed, looked up): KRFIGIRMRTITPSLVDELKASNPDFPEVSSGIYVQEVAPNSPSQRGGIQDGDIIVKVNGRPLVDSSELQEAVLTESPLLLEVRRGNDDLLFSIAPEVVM

[17] = target: LDB3, O75112
[18] = target: T5, LIN7C, Q9NUP9
T5 sequence (Q9NUP9 88-185, limits assumed, looked up): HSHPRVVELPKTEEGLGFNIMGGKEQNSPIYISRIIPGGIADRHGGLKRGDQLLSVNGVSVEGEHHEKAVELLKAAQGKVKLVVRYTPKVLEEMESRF

[19] = target: MAGI2_2, Q86UL8
[20] = target: MAGI2_5, Q86UL8
[21] = target: MAST1, Q9Y2H9
[22] = target: T6, MPDZ_12, O75970
T6 sequence (O75970 1857-1958, limits assumed, looked up): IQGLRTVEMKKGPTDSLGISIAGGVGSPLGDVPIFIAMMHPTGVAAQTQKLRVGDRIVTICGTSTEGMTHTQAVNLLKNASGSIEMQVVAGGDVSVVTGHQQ

[23] = target: NHERF2_2, Q15599
[24] = target: SCRIB_1, Q14160
[25] = target: T7, SNTA1, Q13424
T7 sequence (Q13424 82-180, limits assumed, looked up): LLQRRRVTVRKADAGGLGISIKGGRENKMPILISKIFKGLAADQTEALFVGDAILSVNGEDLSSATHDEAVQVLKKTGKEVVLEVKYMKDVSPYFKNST

[26] = target: T8, SNTG2, Q9NY99
T8 sequence (Q9NY99 68-166, limits assumed, looked up): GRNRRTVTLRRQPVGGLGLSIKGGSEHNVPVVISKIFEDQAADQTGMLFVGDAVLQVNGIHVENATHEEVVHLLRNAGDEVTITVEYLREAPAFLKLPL

[27] = target: T9, SYNJ2BP, P57105
T9 sequence (P57105 8-110, limits assumed, looked up): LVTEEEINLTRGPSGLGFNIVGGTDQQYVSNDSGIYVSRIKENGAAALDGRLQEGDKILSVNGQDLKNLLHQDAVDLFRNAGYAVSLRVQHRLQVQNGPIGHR

[28] = target: T10, TIAM2, Q8IVF5
T10 sequence (Q8IVF5 885-986, limits assumed, looked up): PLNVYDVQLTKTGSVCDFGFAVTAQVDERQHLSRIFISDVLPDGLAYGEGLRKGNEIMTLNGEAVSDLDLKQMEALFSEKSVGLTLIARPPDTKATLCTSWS

[29] = plain residues with an end cap or a label only (N-terminal biotin on a linker: ado-ado)
[30] = plain residues with an end cap or a label only (N-terminal biotin on a linker: ahx)
[31] = plain residues with an end cap or a label only (N-terminal biotin on a linker: ttds)

Sequence of HTRA2, O43464 (O43464 355-458): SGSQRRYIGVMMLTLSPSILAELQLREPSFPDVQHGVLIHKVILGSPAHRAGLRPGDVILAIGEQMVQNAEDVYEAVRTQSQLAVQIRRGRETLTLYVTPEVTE
Sequence of MAGI2_5, Q86UL8 (Q86UL8 915-1017): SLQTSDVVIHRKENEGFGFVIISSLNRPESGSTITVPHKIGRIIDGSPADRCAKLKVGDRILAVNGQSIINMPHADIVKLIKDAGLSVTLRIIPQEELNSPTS
Sequence of DLG2_2, Q15700 (Q15700 189-283): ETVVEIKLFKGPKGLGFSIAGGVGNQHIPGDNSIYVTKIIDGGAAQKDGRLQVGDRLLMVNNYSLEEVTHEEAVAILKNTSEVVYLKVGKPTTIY
Sequence of GORASP1, Q9BQQ3 (Q9BQQ3 1-208): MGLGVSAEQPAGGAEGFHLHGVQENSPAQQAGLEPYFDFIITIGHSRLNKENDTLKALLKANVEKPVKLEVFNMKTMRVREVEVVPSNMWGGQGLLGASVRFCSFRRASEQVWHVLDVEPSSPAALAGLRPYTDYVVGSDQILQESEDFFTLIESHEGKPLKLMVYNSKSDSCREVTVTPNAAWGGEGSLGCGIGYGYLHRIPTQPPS
Sequence of DLG4_3, P78352 (P78352 306-403): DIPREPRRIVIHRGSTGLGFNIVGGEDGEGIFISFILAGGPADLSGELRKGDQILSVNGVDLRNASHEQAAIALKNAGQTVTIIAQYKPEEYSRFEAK
Sequence of MAST1, Q9Y2H9 (Q9Y2H9 962-1065): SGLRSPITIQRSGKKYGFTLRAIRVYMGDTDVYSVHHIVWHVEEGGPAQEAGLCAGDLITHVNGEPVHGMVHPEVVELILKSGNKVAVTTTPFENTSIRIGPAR
Sequence of SCRIB_1, Q14160 (Q14160 718-814): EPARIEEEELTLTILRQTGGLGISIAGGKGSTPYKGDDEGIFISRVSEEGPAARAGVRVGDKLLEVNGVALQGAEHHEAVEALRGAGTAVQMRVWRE
Sequence of GRID2IP_1, A4D2P6 (A4D2P6 1-87): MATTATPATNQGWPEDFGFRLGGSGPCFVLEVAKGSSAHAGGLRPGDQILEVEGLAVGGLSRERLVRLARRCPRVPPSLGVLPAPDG
Sequence of GRIP2_7, Q9C0E4 (Q9C0E4 934-1023): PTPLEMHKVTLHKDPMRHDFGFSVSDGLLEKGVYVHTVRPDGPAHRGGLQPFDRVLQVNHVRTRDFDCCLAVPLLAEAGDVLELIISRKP
Sequence of MAGI2_2, Q86UL8 (Q86UL8 410-522): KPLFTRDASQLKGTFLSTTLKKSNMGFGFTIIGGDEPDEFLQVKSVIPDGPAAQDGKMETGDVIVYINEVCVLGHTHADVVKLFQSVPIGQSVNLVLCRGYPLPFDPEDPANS
Sequence of LDB3, O75112 (O75112 1-94): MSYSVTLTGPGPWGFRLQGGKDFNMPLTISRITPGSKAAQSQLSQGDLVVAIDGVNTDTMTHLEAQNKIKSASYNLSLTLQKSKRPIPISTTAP
Sequence of DLG1_3, Q12959 (Q12959 457-571): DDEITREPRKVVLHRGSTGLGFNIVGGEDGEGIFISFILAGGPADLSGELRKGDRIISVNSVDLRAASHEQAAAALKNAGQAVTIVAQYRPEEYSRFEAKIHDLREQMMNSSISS
Sequence of GRID2IP_2, A4D2P6 (A4D2P6 272-370): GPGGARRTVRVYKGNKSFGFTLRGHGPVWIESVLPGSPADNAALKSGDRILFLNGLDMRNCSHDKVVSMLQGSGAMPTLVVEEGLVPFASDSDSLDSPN
Sequence of FRMPD2_2, Q68DX3 (Q68DX3 944-1038): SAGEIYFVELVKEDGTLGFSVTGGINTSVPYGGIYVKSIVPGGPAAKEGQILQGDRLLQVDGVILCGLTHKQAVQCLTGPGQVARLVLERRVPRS
Sequence of AHNAK1, Q09666 (Q09666 4-100): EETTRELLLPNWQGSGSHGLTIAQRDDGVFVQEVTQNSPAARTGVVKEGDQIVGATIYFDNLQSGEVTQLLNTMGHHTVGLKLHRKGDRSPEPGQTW
Sequence of NHERF2_2, Q15599 (Q15599 142-238): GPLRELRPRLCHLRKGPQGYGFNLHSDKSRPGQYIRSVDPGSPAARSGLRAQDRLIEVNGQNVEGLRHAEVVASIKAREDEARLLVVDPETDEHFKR
Sequence of GRIP2_5, Q9C0E4 (Q9C0E4 544-642): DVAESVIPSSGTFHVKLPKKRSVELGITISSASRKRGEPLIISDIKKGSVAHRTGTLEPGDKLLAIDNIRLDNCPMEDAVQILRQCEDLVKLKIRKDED

pKd [1, 29]: below the threshold
pKd [2, 29]: below the threshold
pKd [3, 29]: below the threshold
pKd [4, 29]: below the threshold
pKd [5, 29]: 3.56
pKd [6, 29]: 3.68
pKd [7, 29]: below the threshold
pKd [8, 29]: below the threshold
pKd [9, 29]: below the threshold
pKd [10, 29]: below the threshold
pKd [11, 29]: 3.83
pKd [12, 29]: below the threshold
pKd [13, 29]: below the threshold
pKd [14, 29]: below the threshold
pKd [15, 29]: below the threshold
pKd [16, 29]: below the threshold
pKd [17, 29]: below the threshold
pKd [18, 29]: 3.48
pKd [19, 29]: 3.96
pKd [20, 29]: below the threshold
pKd [21, 29]: below the threshold
pKd [22, 29]: below the threshold
pKd [23, 29]: below the threshold
pKd [24, 29]: 3.82
pKd [25, 29]: 3.55
pKd [26, 29]: 3.52
pKd [27, 29]: below the threshold
pKd [28, 29]: below the threshold
Binder: GKKSVKHSKI [ACOT6, Q3I5F7]

pKd [1, 30]: below the threshold
pKd [2, 30]: below the threshold
pKd [3, 30]: below the threshold
pKd [4, 30]: below the threshold
pKd [5, 30]: below the threshold
pKd [6, 30]: below the threshold
pKd [7, 30]: below the threshold
pKd [8, 30]: below the threshold
pKd [9, 30]: below the threshold
pKd [10, 30]: below the threshold
pKd [11, 30]: below the threshold
pKd [12, 30]: below the threshold
pKd [13, 30]: below the threshold
pKd [14, 30]: below the threshold
pKd [15, 30]: below the threshold
pKd [16, 30]: below the threshold
pKd [17, 30]: below the threshold
pKd [18, 30]: below the threshold
pKd [19, 30]: below the threshold
pKd [20, 30]: below the threshold
pKd [21, 30]: 3.5
pKd [22, 30]: below the threshold
pKd [23, 30]: 3.66
pKd [24, 30]: below the threshold
pKd [25, 30]: below the threshold
pKd [26, 30]: below the threshold
pKd [27, 30]: below the threshold
pKd [28, 30]: below the threshold
Binder: GIFPTLTSPL [SHROOM3, Q8TF72]

pKd [1, 31]: below the threshold
pKd [2, 31]: below the threshold
pKd [3, 31]: below the threshold
pKd [4, 31]: below the threshold
pKd [5, 31]: below the threshold
pKd [6, 31]: below the threshold
pKd [7, 31]: below the threshold
pKd [8, 31]: below the threshold
pKd [9, 31]: below the threshold
pKd [10, 31]: below the threshold
pKd [11, 31]: below the threshold
pKd [12, 31]: 3.63
pKd [13, 31]: below the threshold
pKd [14, 31]: below the threshold
pKd [15, 31]: below the threshold
pKd [16, 31]: below the threshold
pKd [17, 31]: 3.99
pKd [18, 31]: below the threshold
pKd [19, 31]: below the threshold
pKd [20, 31]: below the threshold
pKd [21, 31]: 4.83
pKd [22, 31]: below the threshold
pKd [23, 31]: 4.87
pKd [24, 31]: 4.86
pKd [25, 31]: below the threshold
pKd [26, 31]: below the threshold
pKd [27, 31]: 4.09
pKd [28, 31]: below the threshold
Binder: NQLAWFDTDL [CTNNB1, P35222]
